From the Human Domainome abundance scans (Beltran et al. 2025)
± gives the uncertainty stated by the source.

B1: Protein maelstrom homolog, residues 3 to 71; numbered along this chain, Q96JY0 (parent)
chain: NRKASRNAYYFFVQEKIPELRRRGLPVARVADAIPYCSSDWALLREEEKEKYAEMAREWRAAQGKDPGP

Variants of: B1
Experiment: abundance fitness (aPCA) (normalised: wild type 0, dead -1); higher = more abundant; growth selection in yeast, the domain comes from the species named
Details: Homo sapiens

Variant | abundance fitness
NRKASRNAYYFFVQEKIPEKRRRGLPVARVADAIPYCSSDWALLREEEKEKYAEMAREWRAAQGKDPGP [L20K] | -0.88 ± 0.16
NRKASRNAYYFFVQEKIPEDRRRGLPVARVADAIPYCSSDWALLREEEKEKYAEMAREWRAAQGKDPGP [L20D] | -0.772 ± 0.16
NRKASRNAYYFFVQEKIPECRRRGLPVARVADAIPYCSSDWALLREEEKEKYAEMAREWRAAQGKDPGP [L20C] | -0.611 ± 0.17
NRKASRNAYYFFVQEKIPEHRRRGLPVARVADAIPYCSSDWALLREEEKEKYAEMAREWRAAQGKDPGP [L20H] | -0.953 ± 0.26
NRKASRNAYYFFVQEKIPEARRRGLPVARVADAIPYCSSDWALLREEEKEKYAEMAREWRAAQGKDPGP [L20A] | -1.1 ± 0.12
NRKASRNAYYFFVQEKIPEIRRRGLPVARVADAIPYCSSDWALLREEEKEKYAEMAREWRAAQGKDPGP [L20I] | -0.636 ± 0.21
NRKASRNAYYFFVQEKIPEGRRRGLPVARVADAIPYCSSDWALLREEEKEKYAEMAREWRAAQGKDPGP [L20G] | -0.739 ± 0.068
NRKASRNAYYFFVQDKIPELRRRGLPVARVADAIPYCSSDWALLREEEKEKYAEMAREWRAAQGKDPGP [E15D] | -0.241 ± 0.23
NRKASRNAYYFFVQHKIPELRRRGLPVARVADAIPYCSSDWALLREEEKEKYAEMAREWRAAQGKDPGP [E15H] | 0.023 ± 0.28
NRKASRNAYYFFVQEKIDELRRRGLPVARVADAIPYCSSDWALLREEEKEKYAEMAREWRAAQGKDPGP [P18D] | -0.313 ± 0.099
NRKASRNAYYFFVQEKIKELRRRGLPVARVADAIPYCSSDWALLREEEKEKYAEMAREWRAAQGKDPGP [P18K] | -0.498 ± 0.11
NRKASRNAYYFFVQEKILELRRRGLPVARVADAIPYCSSDWALLREEEKEKYAEMAREWRAAQGKDPGP [P18L] | -0.606 ± 0.1
NRKASRNAYYFFVQEKIEELRRRGLPVARVADAIPYCSSDWALLREEEKEKYAEMAREWRAAQGKDPGP [P18E] | -0.306 ± 0.1
NRKASRNAYYFFVQEKINELRRRGLPVARVADAIPYCSSDWALLREEEKEKYAEMAREWRAAQGKDPGP [P18N] | -0.532 ± 0.15
NRKASRNAYYFFVQEKIMELRRRGLPVARVADAIPYCSSDWALLREEEKEKYAEMAREWRAAQGKDPGP [P18M] | -0.263 ± 0.097
NRKASRNAYYFFVQEKISELRRRGLPVARVADAIPYCSSDWALLREEEKEKYAEMAREWRAAQGKDPGP [P18S] | -0.4 ± 0.071
NRKASRNAYYFFVQEKITELRRRGLPVARVADAIPYCSSDWALLREEEKEKYAEMAREWRAAQGKDPGP [P18T] | -0.411 ± 0.074
NRKASRNAYYFFVQEKIQELRRRGLPVARVADAIPYCSSDWALLREEEKEKYAEMAREWRAAQGKDPGP [P18Q] | -0.338 ± 0.094
NRKASRNAYYFFVQEKIIELRRRGLPVARVADAIPYCSSDWALLREEEKEKYAEMAREWRAAQGKDPGP [P18I] | -0.452 ± 0.2
NRKASRNAYYFFVQEKICELRRRGLPVARVADAIPYCSSDWALLREEEKEKYAEMAREWRAAQGKDPGP [P18C] | -0.358 ± 0.1
NRKASRNAYYFFVQEKIAELRRRGLPVARVADAIPYCSSDWALLREEEKEKYAEMAREWRAAQGKDPGP [P18A] | -0.376 ± 0.067
NRKASRNAYYFFVQEKIHELRRRGLPVARVADAIPYCSSDWALLREEEKEKYAEMAREWRAAQGKDPGP [P18H] | -0.019 ± 0.26
NRKASRNAYYFFVQEKIVELRRRGLPVARVADAIPYCSSDWALLREEEKEKYAEMAREWRAAQGKDPGP [P18V] | -0.268 ± 0.057
NRKASRNAYYFFVQEKIRELRRRGLPVARVADAIPYCSSDWALLREEEKEKYAEMAREWRAAQGKDPGP [P18R] | -0.526 ± 0.057
NRKASRNAYYFFVQEKIGELRRRGLPVARVADAIPYCSSDWALLREEEKEKYAEMAREWRAAQGKDPGP [P18G] | -0.31 ± 0.067
NRKASRNAYYFFVQEKIYELRRRGLPVARVADAIPYCSSDWALLREEEKEKYAEMAREWRAAQGKDPGP [P18Y] | -0.673 ± 0.25

Variant | abundance fitness
NRKASRNAYYFFVQEKIFELRRRGLPVARVADAIPYCSSDWALLREEEKEKYAEMAREWRAAQGKDPGP [P18F] | -0.286 ± 0.16
NRKASRNAYYFFVQEKVPELRRRGLPVARVADAIPYCSSDWALLREEEKEKYAEMAREWRAAQGKDPGP [I17V] | -0.166 ± 0.055
NRKASRNAYYFFVQEKQPELRRRGLPVARVADAIPYCSSDWALLREEEKEKYAEMAREWRAAQGKDPGP [I17Q] | -0.961 ± 0.2
NRKASRNAYYFFVQEKNPELRRRGLPVARVADAIPYCSSDWALLREEEKEKYAEMAREWRAAQGKDPGP [I17N] | -0.797 ± 0.21
NRKASRNAYYFFVQEKHPELRRRGLPVARVADAIPYCSSDWALLREEEKEKYAEMAREWRAAQGKDPGP [I17H] | -0.832 ± 0.24
NRKASRNAYYFFVQEKFPELRRRGLPVARVADAIPYCSSDWALLREEEKEKYAEMAREWRAAQGKDPGP [I17F] | -0.323 ± 0.17
NRKASRNAYYFFVQEKMPELRRRGLPVARVADAIPYCSSDWALLREEEKEKYAEMAREWRAAQGKDPGP [I17M] | -0.241 ± 0.075
NRKASRNAYYFFVQEKRPELRRRGLPVARVADAIPYCSSDWALLREEEKEKYAEMAREWRAAQGKDPGP [I17R] | -0.501 ± 0.062
NRKASRNAYYFFVQEKCPELRRRGLPVARVADAIPYCSSDWALLREEEKEKYAEMAREWRAAQGKDPGP [I17C] | -0.771 ± 0.23
NRKASRNAYYFFVQEKPPELRRRGLPVARVADAIPYCSSDWALLREEEKEKYAEMAREWRAAQGKDPGP [I17P] | -0.755 ± 0.15
NRKASRNAYYFFVQEKKPELRRRGLPVARVADAIPYCSSDWALLREEEKEKYAEMAREWRAAQGKDPGP [I17K] | -0.687 ± 0.11
NRKASRNAYYFFVQEKWPELRRRGLPVARVADAIPYCSSDWALLREEEKEKYAEMAREWRAAQGKDPGP [I17W] | -0.264 ± 0.07
NRKASRNAYYFFVQEKGPELRRRGLPVARVADAIPYCSSDWALLREEEKEKYAEMAREWRAAQGKDPGP [I17G] | -0.503 ± 0.064
NRKASRNAYYFFVQEKAPELRRRGLPVARVADAIPYCSSDWALLREEEKEKYAEMAREWRAAQGKDPGP [I17A] | -0.467 ± 0.084
NRKASRNAYYFFVQEKLPELRRRGLPVARVADAIPYCSSDWALLREEEKEKYAEMAREWRAAQGKDPGP [I17L] | -0.18 ± 0.075
NRKASRNAYYFFVQEKYPELRRRGLPVARVADAIPYCSSDWALLREEEKEKYAEMAREWRAAQGKDPGP [I17Y] | -0.818 ± 0.21
NRKASRNAYYFFVQEQIPELRRRGLPVARVADAIPYCSSDWALLREEEKEKYAEMAREWRAAQGKDPGP [K16Q] | -0.028 ± 0.13
NRKASRNAYYFFVQENIPELRRRGLPVARVADAIPYCSSDWALLREEEKEKYAEMAREWRAAQGKDPGP [K16N] | 0.082 ± 0.22
NRKASRNAYYFFVQEFIPELRRRGLPVARVADAIPYCSSDWALLREEEKEKYAEMAREWRAAQGKDPGP [K16F] | -0.555 ± 0.26
NRKASRNAYYFFVQEAIPELRRRGLPVARVADAIPYCSSDWALLREEEKEKYAEMAREWRAAQGKDPGP [K16A] | -0.096 ± 0.12
NRKASRNAYYFFVQERIPELRRRGLPVARVADAIPYCSSDWALLREEEKEKYAEMAREWRAAQGKDPGP [K16R] | 0.031 ± 0.082
NRKASRNAYYFFVQEVIPELRRRGLPVARVADAIPYCSSDWALLREEEKEKYAEMAREWRAAQGKDPGP [K16V] | -0.41 ± 0.086
NRKASRNAYYFFVQEMIPELRRRGLPVARVADAIPYCSSDWALLREEEKEKYAEMAREWRAAQGKDPGP [K16M] | -0.041 ± 0.11
NRKASRNAYYFFVQESIPELRRRGLPVARVADAIPYCSSDWALLREEEKEKYAEMAREWRAAQGKDPGP [K16S] | -0.141 ± 0.088
NRKASRNAYYFFVQETIPELRRRGLPVARVADAIPYCSSDWALLREEEKEKYAEMAREWRAAQGKDPGP [K16T] | -0.375 ± 0.13
NRKASRNAYYFFVQEYIPELRRRGLPVARVADAIPYCSSDWALLREEEKEKYAEMAREWRAAQGKDPGP [K16Y] | -0.697 ± 0.46

Variant | abundance fitness
NRKASRNAYYFFVQEWIPELRRRGLPVARVADAIPYCSSDWALLREEEKEKYAEMAREWRAAQGKDPGP [K16W] | -0.819 ± 0.18
NRKASRNAYYFFVQECIPELRRRGLPVARVADAIPYCSSDWALLREEEKEKYAEMAREWRAAQGKDPGP [K16C] | -0.428 ± 0.25
NRKASRNAYYFFVQEGIPELRRRGLPVARVADAIPYCSSDWALLREEEKEKYAEMAREWRAAQGKDPGP [K16G] | -0.673 ± 0.1
NRKASRNAYYFFVQEKIPSLRRRGLPVARVADAIPYCSSDWALLREEEKEKYAEMAREWRAAQGKDPGP [E19S] | -0.204 ± 0.053
NRKASRNAYYFFVQEKIPPLRRRGLPVARVADAIPYCSSDWALLREEEKEKYAEMAREWRAAQGKDPGP [E19P] | -0.733 ± 0.14
NRKASRNAYYFFVQEKIPDLRRRGLPVARVADAIPYCSSDWALLREEEKEKYAEMAREWRAAQGKDPGP [E19D] | -0.093 ± 0.15
NRKASRNAYYFFVQEKIPMLRRRGLPVARVADAIPYCSSDWALLREEEKEKYAEMAREWRAAQGKDPGP [E19M] | -0.303 ± 0.088
NRKASRNAYYFFVQEKIPNLRRRGLPVARVADAIPYCSSDWALLREEEKEKYAEMAREWRAAQGKDPGP [E19N] | -0.966 ± 0.47
NRKASRNAYYFFVQEKIPRLRRRGLPVARVADAIPYCSSDWALLREEEKEKYAEMAREWRAAQGKDPGP [E19R] | -0.674 ± 0.058
NRKASRNAYYFFVQEKIPVLRRRGLPVARVADAIPYCSSDWALLREEEKEKYAEMAREWRAAQGKDPGP [E19V] | -0.25 ± 0.06
NRKASRNAYYFFVQEKIPHLRRRGLPVARVADAIPYCSSDWALLREEEKEKYAEMAREWRAAQGKDPGP [E19H] | -0.54 ± 0.14
NRKASRNAYYFFVQEKIPKLRRRGLPVARVADAIPYCSSDWALLREEEKEKYAEMAREWRAAQGKDPGP [E19K] | -0.686 ± 0.11
NRKASRNAYYFFVQEKIPLLRRRGLPVARVADAIPYCSSDWALLREEEKEKYAEMAREWRAAQGKDPGP [E19L] | -0.412 ± 0.067
NRKASRNAYYFFVQEKIPCLRRRGLPVARVADAIPYCSSDWALLREEEKEKYAEMAREWRAAQGKDPGP [E19C] | -0.548 ± 0.15
NRKASRNAYYFFVQEKIPQLRRRGLPVARVADAIPYCSSDWALLREEEKEKYAEMAREWRAAQGKDPGP [E19Q] | -0.623 ± 0.13
NRKASRNAYYFFVWEKIPELRRRGLPVARVADAIPYCSSDWALLREEEKEKYAEMAREWRAAQGKDPGP [Q14W] | -0.014 ± 0.072
NRKASRNAYYFFVPEKIPELRRRGLPVARVADAIPYCSSDWALLREEEKEKYAEMAREWRAAQGKDPGP [Q14P] | -0.724 ± 0.1
NRKASRNAYYFFVYEKIPELRRRGLPVARVADAIPYCSSDWALLREEEKEKYAEMAREWRAAQGKDPGP [Q14Y] | -0.145 ± 0.13
NRKASRNAYYFFVVEKIPELRRRGLPVARVADAIPYCSSDWALLREEEKEKYAEMAREWRAAQGKDPGP [Q14V] | -0.265 ± 0.057
NRKASRNAYYFFVLEKIPELRRRGLPVARVADAIPYCSSDWALLREEEKEKYAEMAREWRAAQGKDPGP [Q14L] | -0.079 ± 0.056
NRKASRNAYYFFVTEKIPELRRRGLPVARVADAIPYCSSDWALLREEEKEKYAEMAREWRAAQGKDPGP [Q14T] | -0.186 ± 0.063
NRKASRNAYYFFVHEKIPELRRRGLPVARVADAIPYCSSDWALLREEEKEKYAEMAREWRAAQGKDPGP [Q14H] | -0.618 ± 0.19
NRKASRNAYYFFVREKIPELRRRGLPVARVADAIPYCSSDWALLREEEKEKYAEMAREWRAAQGKDPGP [Q14R] | -0.074 ± 0.056
NRKASRNAYYFFVSEKIPELRRRGLPVARVADAIPYCSSDWALLREEEKEKYAEMAREWRAAQGKDPGP [Q14S] | -0.196 ± 0.058
NRKASRNAYYFFVMEKIPELRRRGLPVARVADAIPYCSSDWALLREEEKEKYAEMAREWRAAQGKDPGP [Q14M] | -0.023 ± 0.074
NRKASRNAYYFFVIEKIPELRRRGLPVARVADAIPYCSSDWALLREEEKEKYAEMAREWRAAQGKDPGP [Q14I] | -0.228 ± 0.077
